Experimental data as given in the supplement of paper PMC10724198.
± gives the standard deviation of the averaged measurements.
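Note: PSI is a weighted mean of sequencing reads over stability bins, variants kept only with over 10 reads, mCherry proximal and sfGFP distal, peptide attached via GGGS linker.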

These sequences were tested on Saccharomyces cerevisiae (assay: protein stability index of tFT-peptide fusion (C-terminal peptide) (PSI (0-1 scale)); higher = more stable (slower turnover)). Details: genetic background: wild type; temperature: 30 C.
In the case of VGGRVESLGVGD, the protein stability index is reported as 0.584 ± 0.017. LSALPSRPCSKR showed a protein stability index of 0.6893 ± 0.005. With LKAWQRRWEGVR the protein stability index was 0.752 ± 0.026. GSHRSTWGLVPL was tested, and the protein stability index was 0.696 ± 0.067. Work on VYPRRLLPSRGL yielded a protein stability index of 0.668 ± 0.098. MDGRVMAETCRA was tested, and the protein stability index was 0.585 ± 0.038. Work on RPTRSLYLLPLI yielded a protein stability index of 0.699 ± 0.019. With GPSIRWWGGGRR the protein stability index was 0.731 ± 0.049. FVISRPRLHSFC showed a protein stability index of 0.5663 ± 0.0032. With LEITKKKIGLKY the protein stability index was 0.716 ± 0.13. ACSPPPPPTLLF gave a protein stability index of 0.686 ± 0.012. SCSDPPSPLPLS showed a protein stability index of 0.686 ± 0.0088. HLRIAHTPDSPR was tested, and the protein stability index was 0.703 ± 0.0082. IARSVLRIGVWG was tested, and the protein stability index was 0.612 ± 0.045. For PPPSPPLPRHLA, the protein stability index was 0.746 ± 0.06. In the case of GMSSWNSISFPI, the protein stability index is reported as 0.751 ± 0.073. DKGWRTRKVKDE was tested, and the protein stability index was 0.632 ± 0.03. GRPGISESGIIG gave a protein stability index of 0.7103 ± 0.0071. For WQLKGNGGREAL, the protein stability index was 0.671 ± 0.034. KTVPRMESRVRA gave a protein stability index of 0.718 ± 0.053. For REVRRNINKRRE, the protein stability index was 0.67 ± 0.11. For PPPPPLSLLLPP, the protein stability index was 0.703 ± 0.032. YTDVWLPARGSG showed a protein stability index of 0.689 ± 0.056. Sequence EEREKKWKGKGK has a protein stability index of 0.718 ± 0.035. KKEKKKTKKEKR showed a protein stability index of 0.696 ± 0.067. SGIIVSPAVDMY gave a protein stability index of 0.667 ± 0.0067. With FFLSSLFPSFSS the protein stability index was 0.796 ± 0.044. Work on QKKKKTTVKKRQ yielded a protein stability index of 0.671 ± 0.021. LCMGVRGRVGVF showed a protein stability index of 0.682 ± 0.088. For PPPLCSIPPILL, the protein stability index was 0.705 ± 0.034. PRSVPLCALLSL gave a protein stability index of 0.654 ± 0.024. For EITKVKDNEKIN, the protein stability index was 0.686 ± 0.12. For GVGRGCVLNGGG, the protein stability index was 0.743 ± 0.018. With KCKLLKIMKKKE the protein stability index was 0.636 ± 0.13. RYSLMRAVRDRL showed a protein stability index of 0.775 ± 0.17. Sequence VVRWRMGLFGGR has a protein stability index of 0.654 ± 0.013. For GEVMLRYQRISF, the protein stability index was 0.713 ± 0.018. With SRASATTLRLAT the protein stability index was 0.66 ± 0.015. SIVLRNRSGDIL gave a protein stability index of 0.63 ± 0.061. LSPGPVHDRSRP gave a protein stability index of 0.675 ± 0.03. In the case of AGEGRLGDNIKG, the protein stability index is reported as 0.6794 ± 0.004. CHNVIEKIRNNK was tested, and the protein stability index was 0.657 ± 0.1. Sequence VQDALPLLVPPF has a protein stability index of 0.762 ± 0.021. For PLAPLLSPPAFP, the protein stability index was 0.808 ± 0.12. PQTYHRPPPPLH was tested, and the protein stability index was 0.702 ± 0.028. With RLIEDREWLGSR the protein stability index was 0.721 ± 0.014. Sequence AGCRCHSKKAAT has a protein stability index of 0.624 ± 0.027. With PAPLFFCAPFFF the protein stability index was 0.715 ± 0.034. CQYKRRLKTTET was tested, and the protein stability index was 0.732 ± 0.0085. HLGQPRPSCPLF showed a protein stability index of 0.662 ± 0.088. With MLGHKIILHTYI the protein stability index was 0.54735 ± 0.00019. In the case of RRESQRRYRRML, the protein stability index is reported as 0.714 ± 0.059. Work on KKKNKEQTKKTK yielded a protein stability index of 0.719 ± 0.024. For KTDSEPNKRIHK, the protein stability index was 0.707 ± 0.09. GNNPDHAYTSNI showed a protein stability index of 0.682 ± 0.07. VHFGVLSLGKRH was tested, and the protein stability index was 0.769 ± 0.16. Sequence AVWRVSGPFTDA has a protein stability index of 0.685 ± 0.071. In the case of GRGCLGSILVFL, the protein stability index is reported as 0.633 ± 0.047. In the case of SQKNTQLEADGK, the protein stability index is reported as 0.661 ± 0.0093. LWGIAGSGVLVG gave a protein stability index of 0.635 ± 0.0069. Sequence WCLRVRASGRGG has a protein stability index of 0.786 ± 0.3. VGWAGHVWFWWG showed a protein stability index of 0.683 ± 0.064. In the case of AGGGLGVVLGWW, the protein stability index is reported as 0.7054 ± 0.0038. Work on PTMGRRPGRGGA yielded a protein stability index of 0.6987 ± 0.00073. For KKKKIEEKKDCK, the protein stability index was 0.715 ± 0.023. ERSRKVSWRFIR gave a protein stability index of 0.6746 ± 0.0033. GFTHAPTVPSPE was tested, and the protein stability index was 0.745 ± 0.017. RHRLTPLTQYPS showed a protein stability index of 0.677 ± 0.062. For LWVGGVGRVRGV, the protein stability index was 0.69144 ± 0.00047. For CLFPVSLPCPTN, the protein stability index was 0.714 ± 0.018. With GVPFSLGPPPSR the protein stability index was 0.669 ± 0.022. In the case of PPLTSSVCFSLI, the protein stability index is reported as 0.665 ± 0.098. VEYVRSGTLVSG gave a protein stability index of 0.658 ± 0.06. Work on SAIALGCEGVYP yielded a protein stability index of 0.6853 ± 0.0012. In the case of DRNKINYYKGGI, the protein stability index is reported as 0.694 ± 0.031. VVLCAALHRTYG was tested, and the protein stability index was 0.638 ± 0.012. Work on GLCHFVRLSCFC yielded a protein stability index of 0.5186 ± 0.0024. Sequence AGDGCGDWGRLS has a protein stability index of 0.761 ± 0.11. FPVARGRHWLSR showed a protein stability index of 0.732 ± 0.12. With SRSPRSRSRHES the protein stability index was 0.69769 ± 0.00032. In the case of WGLGFRLVFWSV, the protein stability index is reported as 0.5289 ± 0.0022. Sequence KGRGKRRGARAT has a protein stability index of 0.73 ± 0.053. With RSLVAATLSSLG the protein stability index was 0.735 ± 0.045. PHPPPPPPPHSP gave a protein stability index of 0.715 ± 0.08. Work on SAGYFYSWNSSD yielded a protein stability index of 0.708 ± 0.028. Work on RPSTHPPATPPR yielded a protein stability index of 0.695 ± 0.07. For FNETVLYIVPNG, the protein stability index was 0.639 ± 0.065. Work on GVRIVRRGLRRV yielded a protein stability index of 0.731 ± 0.013. With PPPGPLFPSFPL the protein stability index was 0.663 ± 0.051. Sequence SFVFVCDGGSRG has a protein stability index of 0.669 ± 0.017. Sequence PPPSPPDCLPLP has a protein stability index of 0.649 ± 0.086. Sequence RQESYYLYHTAR has a protein stability index of 0.717 ± 0.032. Sequence AVRFISRLPPPA has a protein stability index of 0.686 ± 0.078. VCVGCAACIVGV was tested, and the protein stability index was 0.636 ± 0.026. With KKWKKKNNKRNG the protein stability index was 0.707 ± 0.17. Work on RRERQNEKMTYH yielded a protein stability index of 0.656 ± 0.078. Work on VLFLESWLRFRT yielded a protein stability index of 0.623 ± 0.073. For GAGLPSGLRIGL, the protein stability index was 0.647 ± 0.025. For HKVETHQIIQIK, the protein stability index was 0.726 ± 0.043. LFPSFRSLSFVI was tested, and the protein stability index was 0.672 ± 0.035. Work on TVERGGSLSLVV yielded a protein stability index of 0.718 ± 0.026.
